Data taken from the DeepSol protein solubility set.

Test: soluble on expression in E. coli; label from the status in PepcDB or PDB records

Question: With “MFISDKSRPTDFYKDDHHNSSTTSTTRDMMIDVLTTTNESVDLQSHHHHNHHNHHLHQSQPQQQILLGESSGEDHEVKAPKKRAETWVQDETRSLIMFRRGMDGLFNTSKSNKHLWEQISSKMREKGFDRSPTMCTDKWRNLLKEFKKAKHHDRGNGSAKMSYYKEIEDILRERSKKVTPPQYNKSPNTPPTSAKVDSFMQFTDKGFDDTSISFGSVEANGRPALNLERRLDHDGHPLAITTAVDAVAANGVTPWNWRETPGNGDDSHGQPFGGRVITVKFGDYTRRIGVDGSAEAIKEVIRSAFGLRTRRAFWLEDEDQIIRCLDRDMPLGNYLLRLDDVCKTHLAGLAIRVCHYDESNQLPVHSEEKIFYTEEDYREFLARQGWSSLQVDGFRNIENMDDLQPGAVYRGVR” as the sequence, how does the “soluble on expression in E. coli” value read?
Answer: soluble

Question: For “LPLRESHTAHQATDFGVKVFQQVVQASKDRNVVFSPYGVSSVLAMLQMTTAGKTRRQIQDAMGFKVNEKGTAHALRQLSKELMGPWNKNEISTADAIFVQRDLELVQGFMPHFFKLFQTMVKQVDFSEVERARFIINDWVERHTKGMINDLLAKGAVDELTRLVLVNALYFSGQWKTPFLEASTHQRLFHKSDGSTVSVPMMAQSNKFNYTEFTTPDGLEYDVVELPYQGDTLSMFIAAPFEKDVHLSALTNILDAELIRQWKGNMTRLPRLLILPKFSLETEVDLRGPLEKLGMPDMFSATLADFTSLSDQEQLSVAQALQKVRIEVNESGTVASSSTAFVISARMAPTEMVIDRSFLFVVRHNPTETILFMGQVMEP”, which “soluble on expression in E. coli” value is on record?
Answer: soluble

Question: Which “soluble on expression in E. coli” value does the source give for “ARSTNTFNYATYHTLDEIYDFMDLLVAQHPELVSKLQIGRSYEGRPIYVLKFSTGGSNRPAIWIDLGIHSREWITQATGVWFAKKFTENYGQNPSFTAILDSMDIFLEIVTNPNGFAFTHSENRLWRKTRSVTSSSLCVGVDANRNWDAGFGKAGASSSPCSETYHGKYANSEVEVKSIVDFVKNHGNFKAFLSIHSYSQLLLYPYGYTTQSIPDKTELNQVAKSAVAALKSLYGTSYKYGSIITTIYQASGGSIDWSYNQGIKYSFTFELRDTGRYGFLLPASQIIPTAQETWLGVLTIMEHTVNN” here?
Answer: soluble

Question: Which “soluble on expression in E. coli” value does the source give for “MGSDKIHHHHHHMGRRGLMTETTYYVNGTEVYVAEIPSNQSTETFFLIHGFVSSTYSYRKLMPLLAKRGRVISVDLPGFGRSGKGRTFTYSFQCYAELMVALMRKLNVSKVTFVGHSMGGQVALYVAKWKPHLVKRLVLLSSSGYLQRVKRPFYFLSYIPFLRQMVKWYVQRQDVTKALQQVVYNKGIVNNEAVEMYRLPLADETFYDALLCLMRQREGDLPKEELRKIHHPVLLLWGEQDRVIPVKIGQRLASDLPNASLIVYKNTGHLLPEERPKEIMKAIDRFIRKRRQFSFFS” here?
Answer: not soluble

Question: Which “soluble on expression in E. coli” value does the source give for “MGVLDHVSEYFDCSHGSSKRHKSLQTVDVRVLIDCEGCERKVRRALEGMRGIRDVTIEPNAQKVTVVGYVEPNKVVARIIHRTGKRAELYPFVPYDVVAHPYASGVYDNRAPTGYVRNTEYDPHVSRLARASSTEVRYTTAFSDENASACVVM” here?
Answer: soluble

Question: With “SESPWIAEDTSQIQTKLLEFAKSPEVFDWMVKIRRKIHENPELGYEELETSKLIRSELELIGIKYRYPVAITGVIGYIGTGEPPFVALRADMDALPIQEGVEWEHKSKIAGKMHACGHDGHVTMLLGAAKILHEHRHHLQGTVVLIFQPAEEGLSGAKKMREEGALKNVEAIFGIHLSARIPFGKAASRAGSFLAGAGVFEAVITGKGGHAAIPQHTIDPVVAASSIVLSLQQLVSRETDPLDSKVVTVSKVNGGNAFNVIPDSITIGGTLRAFTGFTQLQQRVKEVITKQAAVHRCNASVNLTPNGREPMPPTVNNKDLYKQFKKVVRDLLGQEAFVEAAPVMGSEDFSYFAETIPGHFSLLGMQDETNGYASSHSPLYRINEDVLPYGAAIHASMAVQYLKEKASKGSVSGFHEEL” as the sequence, how does the “soluble on expression in E. coli” value read?
Answer: soluble

Question: For “MEHKLEDIIAIFNQCFEEEYNTRLVKGGDEPIYLPANDEVPYNAIYFARGFYSSALHEIAHWLVAGKERRKLEDFGYWYEPDGRSEERQRDFEKVEVKPQALEWILATAAGFRYFASADNLNGNPGDTQPFKQAVYEQVKIYAEKGLPKRAETLRKALVAFYSTEDDINLAKFDVTCI”, which “soluble on expression in E. coli” value is on record?
Answer: not soluble

Question: With “MATNKERLFAAGALGPGSGYPGAGFPFAFPGALRGSPPFEMLSPSFRGLGQPDLPKEMASLSVETQSTSSEEMVPSSPSPPPPPRVYKPCFVCNDKSSGYHYGVSSCEGCKGFFRRSIQKNMVYTCHRDKNCIINKVTRNRCQYCRLQKCFEVGMSKEAVRNDRNKKKKEVKEEGSPDSYELSPQLEELITKVSKAHQETFPSLCQLGKYTTNSSADHRVQLDLGLWDKFSELATKCIIKIVEFAKRLPGFTGLSIADQITLLKAACLDILMLRICTRYTPEQDTMTFSDGLTLNRTQMHNAGFGPLTDLVFAFAGQLLPLEMDDTETGLLSAICLICGDRMDLEEPEKVDKLQEPLLEALRLYARRRRPSQPYMFPRMLMKITDLRGISTKGAERAITLKMEIPGPMPPLIREMLENPEMFEDDSSQPGPHPNASSEDEVPGGQGKGGLKSPA” as the sequence, how does the “soluble on expression in E. coli” value read?
Answer: soluble

Question: With “MVRTYSPAFREAAVRMMISHREEYKCSRWAAAVAISEKIGASPNSIYAWFKKSTFETIESDDFDLAYYKERIERLESEIQRLQKTIKFLRTTIIILSNSLHFG” as the sequence, how does the “soluble on expression in E. coli” value read?
Answer: not soluble

Question: Which “soluble on expression in E. coli” value does the source give for “METRRRSSRLQQQTTSDLNAREEPQPSEPPVKRARGAKKNEAPSTAPMPPKTTKKSTKPSRKQGSPIEAELDEMGFELENEEEAEIVVQKSKKNGRKLVKIDENLRISAENGSKSSNFLEENRMEIDEKPGNLAKKSSKNGSRVVKSDEKSENLVQSVPKSTTNGSKVAIIEDDPEIRAENGVKSSKSDEKPDFSAQNGSKLAQNAPNRISRPRRSVTTAKKVSYVPSDDQLELSSSSSELESSSEDEDTEIRPKTGSKIAKKREKSFKISESESSSESPDDESEASEASEDPSIPGPSEPRKRRKIQRKSTLSSGGATTKDLHWPKCSKASIARKTGNPGSKNAAKKPAKSSLRMAQKQKPDQPWKKNLKDYETDRKLAKGERRMLEYRHVAHAYVARGKIEEITYDEAYKLHEMMKKAYFAGRSLLDAAVLDPVEFEKSQKNVKKSEKNDEKNTAGDSSSSEDEWEEMEHFQPPIIDDNIEVSIDHEGGGGDDGEEVVKDWWAIYLRQEINRKIREMWENTHKLLFCLLRGLELTTRLVVNVRAIPRRWDKTQQKELQNELSKFRELSRSRSTTPGEKSLEIQEKSGEKSQKPAKKGQKSEKKAAKKVVVEERNYWVEYWQPREKRWICVDPLHKSVDEPLSIHEHSASPISYVFAIDNKQGICEVSQRYAMDCVKQDFRRRRTNPKWVAWTLFLPPFAANSERKKWEMMQMREDLVKRPLPTVMSEYKNHPLYALEKDLLKFEAIYPPPATQKPLGQIRGHNVYPRSTVFTLQGENNWLKLARSVKIGEKPYKIVKARPDPRIPVEDREDKFLDVYGYWQTEKYRRPPLKNGKIPHNEYGNVYMFNENMCPLDCTYLKLSGLVQISRKLGKQCIPAVVGWAFDGGFTHPVIDGAIVLEKDAIDFINAWEKLESGRAEKEEKQRVEKIHENWKKLIKGMLRLAYVRKQFGHPAAEKPTKRQKIGGKTEEIEENEGGAGPPSSVDHITDNTEQITPMHGFSLDDFINKKK” here?
Answer: soluble

Question: For “MIVVFDAQCLLCSGFARFLLKHDRRGVLRFASMQGETGRALLRAADVDPEDVDTVLFVRDGRAWRESAAALRILHALGWPWRLAWLGWAVPLPIRDALYRCVARNRYRWFGCSDTCILPPPGAAQRFLDLEHHHHHH”, which “soluble on expression in E. coli” value is on record?
Answer: not soluble

Question: Which “soluble on expression in E. coli” value does the source give for “SHKLPSGPPMHHFNSRYSETGCVGMQIRDAHEENPESILDEHVQRVMKTPGCQSPGTGRHSPKSRSPDGH” here?
Answer: soluble

Question: With “MGSDKIHHHHHHMRRFLILFVLLVAGCTGVDPNNPQYRAFVAVAEDVEPVGEAQCRSKDPERNCDFQIQLDLNPSAPANAFQTVDRSGRPVVIFTRSMLDSFRNPDEMAFVMGHEMAHHILEHLDQQRINAVKGAVFLGELVSLEGGTPEQVANAQYVGAVVGSRSYSKAFELEADALGTLITYQAGYRPSVGVKFFEEIPDPGDVFLGTHPANPDRIRIVQRTIRKYGLN” as the sequence, how does the “soluble on expression in E. coli” value read?
Answer: not soluble

Question: For “MEIDGGPPPFCGVAVDDSYDKSEQHEYDEVDDSPDSTSLPLPSASRSRSVTPVKDMAAGHEAVPEASDNNEKGDTMTTALSQDEFTGFQNSEIQKEEDDDDDEWGDFGEAVVAAAPIQARPQSPPPSLKMDGFNNEDDDDDDDWGAFDQARPSTDRTESSPNSSRSQEARHQQSLDEWGAFENSNDLKANGDEWQAEFSSASDVPPPPSDTVLENLELLDEMLENVEFWHDGFQEECREEEESPEMDVVDIPALFDSENLVEMVNSFEVERQRDSRLWLSLRLVEEAISLKFDWNNSEIRKNHLKSLKINPVTAKKEPRAMNSFFDTSNLLLPTPIQATTTSSSTESSHDSSATATNPKTSSSSPPSSVIDSPSVPAVDFDWDTSGLTNPMNRASKHLHELSKKCRNLVCSVSTNCINLLKCC”, which “soluble on expression in E. coli” value is on record?
Answer: not soluble

Question: For “MINANRPIINLDLDLLRTFVAVADLNTFAAAAAAVCRTQSAVSQQMQRLEQLVGKELFARHGRNKLLTEHGIQLLGYARKILRFNDEACSSLMFSNLQGVLTIGASDESADTILPFLLSRISSVYPKLALDVRVKRNAYMVDMVKSQEVDLVVTTNQPHSLDCLNLRTSPTHWYCAAEYVLQRGEPVPLVLLDDPSPFRDMVLETLNAAGIPWRLAYVASTLPAVRAAVKAGLGVTARPVEMMSPDLRVLGAADGLPPLPDTEYLLCRDPNSQNELAMVIFHAMESYQNPWHYNQFSAEGGDDPLMVEGGFE”, which “soluble on expression in E. coli” value is on record?
Answer: not soluble

Question: For “MKYPTIIDSQQLFREPDHPLKAGLDPKCRSTKPLCPDTFAKVMKTIDTFIFDADGVLWLGESVMPGSPRLIDYLVKHNKQIIVLTNNATKSRAVYAKKLAKLGYNSSKMNKNNLVNPAAVVADTLHRAGLDGKRVYLIGEQGLRDEMDELGIEYFGHGPEKKQDEADGSGAFMYDIKLEENVGAVVVGYEKHFDYIKMMKASNYLREEGVLFVATNEDETCPGPNPEVVIPDAGPIVAAIKCASGRDPLTVGKPCTPAFNYIKRKWNINPSRTMMIGDRTNTDVKFGRDHGMKTLLVLSGCHQIEDIIENQMNERDDMVPDYVAPCLGALVPERI”, which “soluble on expression in E. coli” value is on record?
Answer: not soluble

Question: Which “soluble on expression in E. coli” value does the source give for “MGSDKIHHHHHHMITNTHLLISYIVYKNLYNNFNFKLDMAAFALGNIKPDFINKEIKCSHTLNESLDSLIEYSNKLVKYNNSIRKFSLALGIVCHYICDYFCIYHRDGNEKKGILEHLIYEVKLDSNFTMMFLKGKLNYFGCRDYGGSIKKIIFNIEKEYKLEEKDFKRDIKYALFAAIESSKFIVYSSKLYGN” here?
Answer: not soluble

Question: With “MSLTKAQDHDAAVLYGYFRSSASYRVRIALNLKNIIVAQRYVHLRNGEQNLEAFRWINPAGMVPYWSEGEFNLGQSLAIIEYLDETHPEPPLLPKDPKARAIVREIAYAVACDIHPIGNLRILKRLTELGVDEVDRARWSKEWVEQGFAAIEARLAQTPGPFAYGDRPTLADICIVPQIFNARRFDADLAPFERIRQIEAEAMKLDAFVAAEPGRQPDAEGHHHHHH” as the sequence, how does the “soluble on expression in E. coli” value read?
Answer: soluble

Question: For “MDEDLTPIPSLTPDIQKFRIYGRVTYFQENKNGNGIHFLLTDSLGCSIKCIVTVEAVVKHCKDQLKLGQPCYVRGGRVDYHDKRYPNRTGHDCVIFNNNIAEIQITTVATNFVTPIATLNAPKIIYKVHGMITQRGKYSKKEVFCFVITDDKGDSVNVAAFCEFADWLYENLKEKQWYYLYCGLIEKVCKPDDQKEPNNVIILHNKCQIETPSDPSVADPFAELDDLNCTINKMKL”, which “soluble on expression in E. coli” value is on record?
Answer: not soluble

Question: Which “soluble on expression in E. coli” value does the source give for “MDYQQLANQIKQWAIELGFEKVGICDVDLSEHEPALQAWLDAGYHGEMDWMARHGMMRARPAELLPGTLRVISARINYLPPQAQFASNLSDPNQAYISRYALGRDYHKLVRNQLKKLGEKIEQEVGKLGYRPFVDSAPILERPLAQKAGLGWTGKHSLILDKENGSWFFLGELLVDIPLPVDEPSENQCGKCTACITSCPTNAIVAEGVVDARRCVSYLTIEYSGVIPLEFRRAMGNRIYGCDDCQLVCPWNRFAPLTQQSDFHRRQSLNNADLVVLFEWDEATFLKNMEGSAIRRIGHQQWRRNLIIAMGNAPYSPRIIDTLQRHLGQSELLDEHIHWALEEQTQKTATPRQHARLIRIIEKGLPRDA” here?
Answer: not soluble
